Measured values reported in patent US12491161B2, “Single vial vaccine formulations” (priority 2013, dated 2025).

Legend:
[1] = Emulsion particle size and polydispersity by dynamic light scattering (DLS); assay type: physicochemical
Experimental: Emulsion particle size, polydispersity (PdI), and zeta potential were evaluated using dynamic light scattering (DLS) on a Malvern (Worcestershire, UK) Nano-ZS. Measurements were performed generally as previously described (Fox et al., 2011, Pharmaceutical Development and Technology, 16(5):511-519). Briefly, all DLS size measurements were performed in 10^−2 dilutions into 20 nm filtered water (described above) and evaluated in triplicate on single aliquots. For zeta-potential measurements, the same aliquot was evaluated using triplicate measurements and an automatic software determination of the measurement duration between 20 and 40 runs.
Particle size, polydispersity, and zeta potential measurements were made as described previously (Fox et al., 2008, Colloids and Surfaces B: Biointerfaces, 65:98-105) using a Malvern (Worcestershire, UK) Nano-ZS after 100 times dilution into ultrapure water filtered through a 20 nm Whatman (Maidstone, Kent, UK) Anotop plus filter. Nanoparticle tracking analysis was performed with a NanoSight LM10 (Amesbury, UK) with a 405 nm laser and a Hamamatsu Orca Flash 2.8 CMOS camera (Hamamatsu, JP). Samples were diluted 1:105 in 20-nm filtered ultrapure water in three steps. Each sample was diluted and analyzed four times, independently, to account for dilution error. Ninety seconds of video were recorded for each sample with optimized shutter and gain settings. The camera histogram gating was adjusted to maximize sensitivity. Data analysis was performed using NanoSight NTA 2.3 software (Wiltshire, UK) in standard mode.

[2] = Stability under continuous cold-chain maintenance; assay type: physicochemical; details: 4° C.

B1: ID93: recombinant tandem fusion protein antigen of Mtb Rv3619, Rv1813, Rv3620 and Rv2608 (SEQ ID NO: 1 or 2) (protein)
chain: MGSSHHHHHHSSGLVPRGSHMTINYQFGDVDAHGAMIRAQAGSLEAEHQAIISDVLTASDFWGGAGSAACQGFITQLGRNFQVIYEQANAHGQKVQAAGNNMAQTDSAVGSSWAGTHLANGSMSEVMMSEIAGLPIPPIIHYGAIAYAPSGASGKAWHQRTPARAEQVALEKCGDKTCKVVSRFTRCGAVAYNGSKYQGGTGLTRRAAEDDAVNRLEGGRIVNWACNELMTSRFMTDPHAMRDMAGRFEVHAQTVEDEARRMWASAQNISGAGWSGMAEATSLDTMTQMNQAFRNIVNMLHGVRDGLVRDANNYEQQEQASQQILSSVDINFAVLPPEVNSARIFAGAGLGPMLAAASAWDGLAEELHAAAGSFASVTTGLAGDAWHGPASLAMTRAASPYVGWLNTAAGQAAQAAGQARLAASAFEATLAATVSPAMVAANRTRLASLVAANLLGQNAPAIAAAEAEYEQIWAQDVAAMFGYHSAASAVATQLAPIQEGLQQQLQNVLAQLASGNLGSGNVGVGNIGNDNIGNANIGFGNRGDANIGIGNIGDRNLGIGNTGNWNIGIGITGNGQIGFGKPANPDVLVVGNGGPGVTALVMGGTDSLLPLPNIPLLEYAARFITPVHPGYTATFLETPSQFFPFTGLNSLTYDVSVAQGVTNLHTAIMAQLAAGNEVVVFGTSQSATIATFEMRYLQSLPAHLRPGLDELSFTLTGNPNRPDGGILTRFGFSIPQLGFTLSGATPADAYPTVDYAFQYDGVNDFPKYPLNVFATANAIAGILFLHSGLIALPPDLASGVVQPVSSPDVLTTYILLPSQDLPLLVPLRAIPLLGNPLADLIQPDLRVLVELGYDRTAHQDVPSPFGLFPDVDWAEVAADLQQGAVQGVNDALSGLGLPPPWQPALPRLFST
- effect of heat stress on particle size ([1]; 50° C. for 30 days): reduced the average particle size observed; however, this was not statistically significant
- effect of heat stress on polydispersity ([1]; 50° C. for 30 days, liquid or lyophilized formats): did not affect the polydispersity
- particle size (Z-average diameter) ([1]; unstressed): approximately 70 nm
- stability under continuous cold-chain maintenance [2]: stable for more than a year
